The supplement of paper PMC7125110
± gives the standard error. Variants at the floor of the assay were thinned out.

B1: glmS ribozyme (parent)
chain: AUAAAAGCGCCAGAACUACAGAAAUGUAGUUGACGAGGAGGAGGUUUAUCGAAUUUUCGGCGGAUGCCUCCAAA

Legend:
Settings in all cases: with glucosamine-6-phosphate
glucosamine-6-phosphate [1] = variants of: B1; assay: self-cleavage kobs at 40 uM GlcN6P; higher = faster cleavage; RNA array
Procedure, shortened: (§1)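 A hybridised Cy3 probe tracked barcoded ribozyme variants, transcribed in situ by E. coli RNA polymerase on sequenced MiSeq chips, at 37 °C. The variants received 40 μM to 10 mM glucosamine-6-phosphate in HEPES/KCl/Mg(OAc)2 buffer. kobs came from decay fits and kcat and KM from weighted Michaelis–Menten fits.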

glucosamine-6-phosphate [2] = variants of: B1; assay: self-cleavage kobs at 640 uM GlcN6P; higher = faster cleavage; RNA array
Procedure, shortened: as §1

glucosamine-6-phosphate [3] = variants of: B1; assay: self-cleavage kobs at 2500 uM GlcN6P; higher = faster cleavage; RNA array
Procedure, shortened: as §1

glucosamine-6-phosphate [4] = variants of: B1; assay: self-cleavage kobs at 10000 uM GlcN6P; higher = faster cleavage; RNA array
Procedure, shortened: as §1

glucosamine-6-phosphate [5] = variants of: B1; assay: self-cleavage kobs at 160 uM GlcN6P; higher = faster cleavage; RNA array
Procedure, shortened: as §1

Variant	self-cleavage kobs at 40 uM GlcN6P (glucosamine-6-phosphate [1]) [s⁻¹]	self-cleavage kobs at 640 uM GlcN6P (glucosamine-6-phosphate [2]) [s⁻¹]	self-cleavage kobs at 2500 uM GlcN6P (glucosamine-6-phosphate [3]) [s⁻¹]	self-cleavage kobs at 10000 uM GlcN6P (glucosamine-6-phosphate [4]) [s⁻¹]	self-cleavage kobs at 160 uM GlcN6P (glucosamine-6-phosphate [5]) [s⁻¹]
U45A C61A	< 1e-05	< 1e-05	< 1e-05	< 1e-05	–
C10U G38C	< 1e-05	–	–	–	< 1e-05
G9U A15U	< 1e-05	< 1e-05	–	–	< 1e-05
G9C U45C	< 1e-05	–	< 1e-05	–	–
G38A A52U C71U	< 1e-05	–	–	< 1e-05	–
A36C G41U U45G C67G	< 1e-05	–	–	< 1e-05	–
A6U A52C	< 1e-05	< 1e-05	< 1e-05	< 1e-05	< 1e-05
G38A U49C	< 1e-05	–	< 1e-05	–	–
U45G G59C	< 1e-05	< 1e-05	< 1e-05	–	< 1e-05
U31G G43C	< 1e-05	< 1e-05	< 1e-05	–	< 1e-05
G7C U54A	< 1e-05	< 1e-05	–	< 1e-05	–
A28U	0.000787 ± 0.00025	–	0.0144 ± 0.0048	0.0176 ± 0.0065	–
G44U C50G A53U G59A C68A	< 1e-05	–	–	–	–
U31C G60C	< 1e-05	–	–	< 1e-05	–
A6G G35U A52C C70G	< 1e-05	–	–	–	–
C34G G41A	< 1e-05	< 1e-05	–	< 1e-05	< 1e-05
G44A U46G U69G	< 1e-05	–	–	< 1e-05	–
A15U C68A C71A	< 1e-05	–	–	–	–
G32C G44C U55C C68A C70U	< 1e-05	–	< 1e-05	–	–
U56C U57G	< 1e-05	–	2.91e-05 ± 1.2e-05	8.26e-05 ± 2.1e-05	–
C11A C34G	< 1e-05	< 1e-05	–	< 1e-05	< 1e-05
A6C C11G A12G C70U	< 1e-05	–	–	–	–
G7U A52U	< 1e-05	< 1e-05	< 1e-05	< 1e-05	–
C11G G40A U45G	< 1e-05	< 1e-05	< 1e-05	< 1e-05	–
G32C G51A G66A	< 1e-05	< 1e-05	< 1e-05	< 1e-05	–

Variant	self-cleavage kobs at 40 uM GlcN6P (glucosamine-6-phosphate [1]) [s⁻¹]	self-cleavage kobs at 640 uM GlcN6P (glucosamine-6-phosphate [2]) [s⁻¹]	self-cleavage kobs at 2500 uM GlcN6P (glucosamine-6-phosphate [3]) [s⁻¹]	self-cleavage kobs at 10000 uM GlcN6P (glucosamine-6-phosphate [4]) [s⁻¹]	self-cleavage kobs at 160 uM GlcN6P (glucosamine-6-phosphate [5]) [s⁻¹]
A12U A52C C58U C71U	< 1e-05	–	–	–	–
G38A G43A	< 1e-05	< 1e-05	–	< 1e-05	–
G9A G43U	< 1e-05	< 1e-05	< 1e-05	–	< 1e-05
G7C	< 1e-05	< 1e-05	< 1e-05	< 1e-05	< 1e-05
A14U U45G G62C	< 1e-05	–	–	< 1e-05	–
A42C U49A G63C	< 1e-05	–	–	–	–
A36U A48U	< 1e-05	–	< 1e-05	< 1e-05	< 1e-05
C16G A33U	< 1e-05	–	–	3.36e-05 ± 1e-05	–
A14U C16G G32U G44A A48C C61U U69G	< 1e-05	–	–	–	–
G63A A64C	< 1e-05	< 1e-05	< 1e-05	–	< 1e-05
G35U G51A U54G	< 1e-05	–	–	< 1e-05	–
C10U G29U U56G	< 1e-05	–	–	< 1e-05	–
C10G A39C U45A U54G G62C	< 1e-05	–	–	< 1e-05	–
G13A A36G G44U A53U	< 1e-05	–	< 1e-05	< 1e-05	–
C8G U31C C71A	< 1e-05	–	–	–	–
G32C C34A	< 1e-05	< 1e-05	–	< 1e-05	< 1e-05
C16U A42U U45C G59A C68U	< 1e-05	–	–	< 1e-05	–
C8U G51A A52G G63C	< 1e-05	–	–	–	–
U45C U55C	5.77e-05 ± 1.3e-05	–	0.00199 ± 0.00054	0.00272 ± 0.00037	–
G59C C68U	< 1e-05	–	–	–	–
U31C U69C C70A	< 1e-05	–	–	–	–
C10U G60U	< 1e-05	< 1e-05	–	< 1e-05	< 1e-05
G9A G41U U56G	< 1e-05	< 1e-05	–	< 1e-05	< 1e-05
A6G A52U	< 1e-05	< 1e-05	–	–	< 1e-05
G35C C50U G51C	< 1e-05	< 1e-05	< 1e-05	< 1e-05	< 1e-05

Variant	self-cleavage kobs at 40 uM GlcN6P (glucosamine-6-phosphate [1]) [s⁻¹]	self-cleavage kobs at 640 uM GlcN6P (glucosamine-6-phosphate [2]) [s⁻¹]	self-cleavage kobs at 2500 uM GlcN6P (glucosamine-6-phosphate [3]) [s⁻¹]	self-cleavage kobs at 10000 uM GlcN6P (glucosamine-6-phosphate [4]) [s⁻¹]	self-cleavage kobs at 160 uM GlcN6P (glucosamine-6-phosphate [5]) [s⁻¹]
A39C G60C C68U	< 1e-05	< 1e-05	–	–	< 1e-05
C11U A36G G38C U69C	< 1e-05	–	–	–	–
U30A U31C C50G U56G C61G	3.8e-05 ± 1.5e-05	–	–	–	–
C10A U31C	< 1e-05	< 1e-05	–	< 1e-05	–
C58A U65A C67G	< 1e-05	–	–	–	–
C11G C34A A64C	< 1e-05	–	–	< 1e-05	–
A12U A15U C16A G41A G66A	< 1e-05	–	–	–	–
A12C C16G A36U	< 1e-05	–	–	< 1e-05	–
U56C G59A	< 1e-05	–	–	–	–
A6C A12U U30A A48C	< 1e-05	–	–	< 1e-05	–
G13A C50G C58A C70U	6.62e-05 ± 1.6e-05	–	0.000539 ± 6.7e-05	9.7e-05 ± 2.5e-05	–
A52C G62U	< 1e-05	–	–	< 1e-05	< 1e-05
G41U C50U G59U G66U	< 1e-05	–	–	–	–
A15G G32U U56G G60U	< 1e-05	–	–	–	–
C11A A33U U45A	< 1e-05	< 1e-05	< 1e-05	–	–
G7U U30A	< 1e-05	< 1e-05	< 1e-05	–	< 1e-05
G13A C50A U69G	4.48e-05 ± 2.2e-05	–	–	–	–
C10A U47C U54C G66U	< 1e-05	–	–	< 1e-05	–
G29A A39G	0.000267 ± 3.9e-05	0.00148 ± 0.00051	0.00297 ± 0.00077	0.0102 ± 0.0018	–
A6C A52U G60U	< 1e-05	–	–	–	–
G51A U65A	< 1e-05	–	< 1e-05	< 1e-05	–
G9C C71U	< 1e-05	< 1e-05	< 1e-05	< 1e-05	< 1e-05
U45A U55A A64G	0.00112 ± 0.00022	0.00335 ± 0.0011	0.00972 ± 0.0028	0.0175 ± 0.0056	–
G51C C61A	< 1e-05	< 1e-05	< 1e-05	< 1e-05	–
A48C G60U	< 1e-05	< 1e-05	< 1e-05	< 1e-05	< 1e-05

Variant	self-cleavage kobs at 40 uM GlcN6P (glucosamine-6-phosphate [1]) [s⁻¹]	self-cleavage kobs at 640 uM GlcN6P (glucosamine-6-phosphate [2]) [s⁻¹]	self-cleavage kobs at 2500 uM GlcN6P (glucosamine-6-phosphate [3]) [s⁻¹]	self-cleavage kobs at 10000 uM GlcN6P (glucosamine-6-phosphate [4]) [s⁻¹]	self-cleavage kobs at 160 uM GlcN6P (glucosamine-6-phosphate [5]) [s⁻¹]
U31A C61A A64U	< 1e-05	–	–	< 1e-05	–
G29U A33U G38C G40A	< 1e-05	–	–	–	–
G7U C19A	< 1e-05	< 1e-05	< 1e-05	–	< 1e-05
G38U G41C G43A	< 1e-05	–	–	–	–
C10U G59C C68A	< 1e-05	–	–	< 1e-05	–
G13U A36G G62U G66U C70A	< 1e-05	–	–	–	–
G35U U46A C58U	< 1e-05	–	< 1e-05	< 1e-05	< 1e-05
C8G U65C	< 1e-05	< 1e-05	< 1e-05	–	< 1e-05
C16A G32C G41C C68U C70A C71U	< 1e-05	–	–	–	–
G13U A48G U65C U69G	< 1e-05	–	–	–	–
A53U U55A C67G	0.000155 ± 4.4e-05	–	–	0.00212 ± 0.00067	–
G7U C70G C71G	4.02e-05 ± 2e-05	0.000251 ± 8.1e-05	–	–	–
C10U U54A C70A	< 1e-05	–	–	–	–
A6U U31C C50G	7.08e-05 ± 1.6e-05	–	–	3.4e-05 ± 1.4e-05	–
C8A A15U	< 1e-05	< 1e-05	< 1e-05	< 1e-05	< 1e-05
C10G U65A	< 1e-05	< 1e-05	–	< 1e-05	–
A33U C67U C70G	< 1e-05	–	–	–	–
A42G G63A U69G	< 1e-05	–	–	< 1e-05	–
G13C A48C	< 1e-05	–	< 1e-05	< 1e-05	< 1e-05
A15U A36G	< 1e-05	< 1e-05	–	< 1e-05	–
G9U A33C U69G	< 1e-05	–	–	–	–
G7A G41A	< 1e-05	< 1e-05	< 1e-05	< 1e-05	< 1e-05
U31C G44A C71U	< 1e-05	< 1e-05	–	–	< 1e-05
G29A C71U	0.000141 ± 2e-05	0.000549 ± 7.9e-05	0.00526 ± 0.0012	0.00436 ± 0.00077	0.000261 ± 8.2e-05
